The values below are quoted from earlier work in patent publication US20090048308A1, “VLA-4 Antagonists” (priority 2005, published 2009).

Bounds are passed on as bounds.

In the data set the target is T1, VLA-4 (Homo sapiens, UniProt P13612).
T1 construct: host or cells: VLA-4-bearing blood cells of trial subjects (inferred)
The settings on record: early clinical trials.

As to “natalizumab: humanized monoclonal antibody against α4 (Tysabri®, Elan/Biogen)”, the receptor occupancy was above 80%.
